According to paper PMC4333417 (Nucleic Acids Research, 2015):

T1: Sco5333 (Streptomyces coelicolor, UniProt Q9ADD4 1-301)
T1 sequence: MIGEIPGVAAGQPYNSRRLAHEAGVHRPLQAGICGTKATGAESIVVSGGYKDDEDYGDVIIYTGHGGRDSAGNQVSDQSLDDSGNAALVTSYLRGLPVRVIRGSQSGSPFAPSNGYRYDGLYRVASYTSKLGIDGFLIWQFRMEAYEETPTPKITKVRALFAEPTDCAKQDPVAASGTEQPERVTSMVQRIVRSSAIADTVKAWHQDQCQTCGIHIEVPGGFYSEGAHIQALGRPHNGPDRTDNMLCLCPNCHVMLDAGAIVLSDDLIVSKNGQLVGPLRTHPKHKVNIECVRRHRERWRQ


These binders were tested against T1, Sco5333 (assay: EMSA).

Row | Binder | binding result
1 | 55ntDcm1 non-methylated (55nt-2/4) (dsDNA) DNA 1: GAAACCCGACAGGACTATAAAGATACCAGGCGTTTCCCCCTGGAAGCTCCCTCGT DNA 2: ACGAGGGAGCTTCCAGGGGGAAACGCCTGGTATCTTTATAGTCCTGTCGGGTTTC | no binding
2 | 55ntDcm2 fully methylated (55nt-5/7) (dsDNA, 5mC at strand 1 pos 27 and strand 2 pos 27) DNA 1: ACTATAAAGATACCAGGCGTTTCCCCCTGGAAGCTCCCTCGTGCGCTCTCCTGTT DNA 2: AACAGGAGAGCGCACGAGGGAGCTTCCAGGGGGAAACGCCTGGTATCTTTATAGT | binds
3 | 55ntDcm2 top methylated (55nt-5/8) (dsDNA, 5mC at strand 1 pos 27) DNA 1: ACTATAAAGATACCAGGCGTTTCCCCCTGGAAGCTCCCTCGTGCGCTCTCCTGTT DNA 2: AACAGGAGAGCGCACGAGGGAGCTTCCAGGGGGAAACGCCTGGTATCTTTATAGT | binds
4 | 55ntDcm2 bottom methylated (55nt-6/7) (dsDNA, 5mC at strand 2 pos 27) DNA 1: ACTATAAAGATACCAGGCGTTTCCCCCTGGAAGCTCCCTCGTGCGCTCTCCTGTT DNA 2: AACAGGAGAGCGCACGAGGGAGCTTCCAGGGGGAAACGCCTGGTATCTTTATAGT | binds
5 | 55ntDcm2 non-methylated (55nt-6/8) (dsDNA) DNA 1: ACTATAAAGATACCAGGCGTTTCCCCCTGGAAGCTCCCTCGTGCGCTCTCCTGTT DNA 2: AACAGGAGAGCGCACGAGGGAGCTTCCAGGGGGAAACGCCTGGTATCTTTATAGT | no binding
6 | 55ntDcm1 GmCAGG full (55nt-9/11) (dsDNA, 5mC at strand 1 pos 27 and strand 2 pos 27) DNA 1: GAAACCCGACAGGACTATAAAGATAGCAGGCGTTTCCCCCTGGAAGCTCCCTCGT DNA 2: ACGAGGGAGCTTCCAGGGGGAAACGCCTGCTATCTTTATAGTCCTGTCGGGTTTC | binds
7 | 55ntDcm1 GmCAGG top (55nt-9/12) (dsDNA, 5mC at strand 1 pos 27) DNA 1: GAAACCCGACAGGACTATAAAGATAGCAGGCGTTTCCCCCTGGAAGCTCCCTCGT DNA 2: ACGAGGGAGCTTCCAGGGGGAAACGCCTGCTATCTTTATAGTCCTGTCGGGTTTC | binds
8 | 55ntDcm1 GmCAGG bottom (55nt-10/11) (dsDNA, 5mC at strand 2 pos 27) DNA 1: GAAACCCGACAGGACTATAAAGATAGCAGGCGTTTCCCCCTGGAAGCTCCCTCGT DNA 2: ACGAGGGAGCTTCCAGGGGGAAACGCCTGCTATCTTTATAGTCCTGTCGGGTTTC | binds
9 | 55ntDcm1 AmCAGG full (55nt-13/15) (dsDNA, 5mC at strand 1 pos 27 and strand 2 pos 27) DNA 1: GAAACCCGACAGGACTATAAAGATAACAGGCGTTTCCCCCTGGAAGCTCCCTCGT DNA 2: ACGAGGGAGCTTCCAGGGGGAAACGCCTGTTATCTTTATAGTCCTGTCGGGTTTC | binds
10 | 55ntDcm1 AmCAGG top (55nt-13/16) (dsDNA, 5mC at strand 1 pos 27) DNA 1: GAAACCCGACAGGACTATAAAGATAACAGGCGTTTCCCCCTGGAAGCTCCCTCGT DNA 2: ACGAGGGAGCTTCCAGGGGGAAACGCCTGTTATCTTTATAGTCCTGTCGGGTTTC | binds
11 | 55ntDcm1 AmCAGG bottom (55nt-14/15) (dsDNA, 5mC at strand 2 pos 27) DNA 1: GAAACCCGACAGGACTATAAAGATAACAGGCGTTTCCCCCTGGAAGCTCCCTCGT DNA 2: ACGAGGGAGCTTCCAGGGGGAAACGCCTGTTATCTTTATAGTCCTGTCGGGTTTC | binds
12 | 55ntDcm1 TmCAGG full (55nt-17/19) (dsDNA, 5mC at strand 1 pos 27 and strand 2 pos 27) DNA 1: GAAACCCGACAGGACTATAAAGATATCAGGCGTTTCCCCCTGGAAGCTCCCTCGT DNA 2: ACGAGGGAGCTTCCAGGGGGAAACGCCTGATATCTTTATAGTCCTGTCGGGTTTC | binds
13 | 55ntDcm1 TmCAGG top (55nt-17/20) (dsDNA, 5mC at strand 1 pos 27) DNA 1: GAAACCCGACAGGACTATAAAGATATCAGGCGTTTCCCCCTGGAAGCTCCCTCGT DNA 2: ACGAGGGAGCTTCCAGGGGGAAACGCCTGATATCTTTATAGTCCTGTCGGGTTTC | binds
14 | 55ntDcm1 TmCAGG bottom (55nt-18/19) (dsDNA, 5mC at strand 2 pos 27) DNA 1: GAAACCCGACAGGACTATAAAGATATCAGGCGTTTCCCCCTGGAAGCTCCCTCGT DNA 2: ACGAGGGAGCTTCCAGGGGGAAACGCCTGATATCTTTATAGTCCTGTCGGGTTTC | binds
15 | 55ntDcm1 CmCTGG full (55nt-21/23) (dsDNA, 5mC at strand 1 pos 27 and strand 2 pos 27) DNA 1: GAAACCCGACAGGACTATAAAGATACCTGGCGTTTCCCCCTGGAAGCTCCCTCGT DNA 2: ACGAGGGAGCTTCCAGGGGGAAACGCCAGGTATCTTTATAGTCCTGTCGGGTTTC | binds
16 | 55ntDcm1 CmCTGG top (55nt-21/24) (dsDNA, 5mC at strand 1 pos 27) DNA 1: GAAACCCGACAGGACTATAAAGATACCTGGCGTTTCCCCCTGGAAGCTCCCTCGT DNA 2: ACGAGGGAGCTTCCAGGGGGAAACGCCAGGTATCTTTATAGTCCTGTCGGGTTTC | binds
17 | 55ntDcm1 CmCTGG bottom (55nt-22/23) (dsDNA, 5mC at strand 2 pos 27) DNA 1: GAAACCCGACAGGACTATAAAGATACCTGGCGTTTCCCCCTGGAAGCTCCCTCGT DNA 2: ACGAGGGAGCTTCCAGGGGGAAACGCCAGGTATCTTTATAGTCCTGTCGGGTTTC | binds
18 | 55ntDcm1 CmCCGG full (55nt-25/27) (dsDNA, 5mC at strand 1 pos 27 and strand 2 pos 27) DNA 1: GAAACCCGACAGGACTATAAAGATACCCGGCGTTTCCCCCTGGAAGCTCCCTCGT DNA 2: ACGAGGGAGCTTCCAGGGGGAAACGCCGGGTATCTTTATAGTCCTGTCGGGTTTC | binds
19 | 55ntDcm1 CmCCGG top (55nt-25/28) (dsDNA, 5mC at strand 1 pos 27) DNA 1: GAAACCCGACAGGACTATAAAGATACCCGGCGTTTCCCCCTGGAAGCTCCCTCGT DNA 2: ACGAGGGAGCTTCCAGGGGGAAACGCCGGGTATCTTTATAGTCCTGTCGGGTTTC | binds
20 | 55ntDcm1 CmCCGG bottom (55nt-26/27) (dsDNA, 5mC at strand 2 pos 27) DNA 1: GAAACCCGACAGGACTATAAAGATACCCGGCGTTTCCCCCTGGAAGCTCCCTCGT DNA 2: ACGAGGGAGCTTCCAGGGGGAAACGCCGGGTATCTTTATAGTCCTGTCGGGTTTC | binds
21 | 55ntDcm1 CmCGGG full (55nt-29/31) (dsDNA, 5mC at strand 1 pos 27 and strand 2 pos 27) DNA 1: GAAACCCGACAGGACTATAAAGATACCGGGCGTTTCCCCCTGGAAGCTCCCTCGT DNA 2: ACGAGGGAGCTTCCAGGGGGAAACGCCCGGTATCTTTATAGTCCTGTCGGGTTTC | binds
22 | 55ntDcm1 CmCGGG top (55nt-29/32) (dsDNA, 5mC at strand 1 pos 27) DNA 1: GAAACCCGACAGGACTATAAAGATACCGGGCGTTTCCCCCTGGAAGCTCCCTCGT DNA 2: ACGAGGGAGCTTCCAGGGGGAAACGCCCGGTATCTTTATAGTCCTGTCGGGTTTC | binds
23 | 55ntDcm1 CmCGGG bottom (55nt-30/31) (dsDNA, 5mC at strand 2 pos 27) DNA 1: GAAACCCGACAGGACTATAAAGATACCGGGCGTTTCCCCCTGGAAGCTCCCTCGT DNA 2: ACGAGGGAGCTTCCAGGGGGAAACGCCCGGTATCTTTATAGTCCTGTCGGGTTTC | binds
24 | 55ntDcm1 fully methylated (55nt-1/3) (dsDNA, 5mC at strand 1 pos 27 and strand 2 pos 27) DNA 1: GAAACCCGACAGGACTATAAAGATACCAGGCGTTTCCCCCTGGAAGCTCCCTCGT DNA 2: ACGAGGGAGCTTCCAGGGGGAAACGCCTGGTATCTTTATAGTCCTGTCGGGTTTC | binds
25 | 55ntDcm1 top methylated (55nt-1/4) (dsDNA, 5mC at strand 1 pos 27) DNA 1: GAAACCCGACAGGACTATAAAGATACCAGGCGTTTCCCCCTGGAAGCTCCCTCGT DNA 2: ACGAGGGAGCTTCCAGGGGGAAACGCCTGGTATCTTTATAGTCCTGTCGGGTTTC | binds
